From US20190276540A1 come the findings set out here.

Assay [1] concerns the target NKG2D ligands (NKG2DL) on tumor cell lines. The experiment in a line: cell-based or functional assay.
The target of another assay is ULBP2-Fc (UniProt Q9BZM5). Put plainly: cell-based or functional assay.
Sequence of UniProt Q9BZM5 (Q9BZM5 26-217 limits assumed): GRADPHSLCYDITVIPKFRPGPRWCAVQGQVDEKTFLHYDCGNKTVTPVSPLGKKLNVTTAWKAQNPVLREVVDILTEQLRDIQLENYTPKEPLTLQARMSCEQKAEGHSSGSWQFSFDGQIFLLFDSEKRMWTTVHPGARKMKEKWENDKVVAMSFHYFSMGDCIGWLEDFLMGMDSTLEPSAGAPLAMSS

Substance dimeric NKG2D-CD3ε TFP (receptor) came in with a tumor cell lysis, luciferase reporter assay, 24 h co-culture, E:T 1-to-1 in assay [1] of 30 to 50%. Moreover, the proliferation of CFSE-labelled TFP T cells on plate-bound antigen, three-day culture, flow cytometry with ULBP2-Fc came to 60 ng/mL.

For the substance monomeric NKG2D-CD3ε TFP (receptor), the tumor cell lysis, luciferase reporter assay, 24 h co-culture, E:T 5-to-1 in assay [1] was in the range of 30 to 50%. This substance had a proliferation of CFSE-labelled TFP T cells on plate-bound antigen, three-day culture, flow cytometry in the assay with ULBP2-Fc of 250 ng/mL.
